Values quoted from earlier work, collected in article PMC10531186.

Molecular target: uPA (Mus musculus) (UniProt P06869)
UniProt P06869, sequence (P06869 21-433): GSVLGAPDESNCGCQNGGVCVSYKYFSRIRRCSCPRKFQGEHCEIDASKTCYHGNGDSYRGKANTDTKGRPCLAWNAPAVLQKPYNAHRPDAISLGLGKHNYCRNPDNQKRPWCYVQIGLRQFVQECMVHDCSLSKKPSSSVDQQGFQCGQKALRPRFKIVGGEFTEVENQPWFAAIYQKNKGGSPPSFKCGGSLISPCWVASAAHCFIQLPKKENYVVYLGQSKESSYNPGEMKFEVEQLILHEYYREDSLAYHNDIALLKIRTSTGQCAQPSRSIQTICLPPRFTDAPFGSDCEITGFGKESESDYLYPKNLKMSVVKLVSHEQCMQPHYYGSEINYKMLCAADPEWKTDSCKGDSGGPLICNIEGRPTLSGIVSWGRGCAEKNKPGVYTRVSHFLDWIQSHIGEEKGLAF

Ki: 0.185 µM
Substance: mupain-1
